# B1: Isoform 2 of Bardet-Biedl syndrome 7 protein (Homo sapiens), Q8IWZ6-2 (parent)
# chain: MDLILNRMDYLQVGVTSQKTMKLIPASRHRATQKVVIGDHDGVVMCFGMKKGEAAAVFKTLPGPKIARLELGGVINTPQEKIFIAAASEIRGFTKRGKQFLSFETNLTESIKAMHISGSDLFLSASYIYNHYCDCKDQHYYLSGDKINDVICLPVERLSRITPVLACQDRVLRVLQGSDVMYAVEVPGPPTVLALHNGNGGDSGEDLLFGTSDGKLALIQITTSKPVRKWEIQNEKKRGGILCIDSFDIVGDGVKDLLVGRDDGMVEVYSFDNANEPVLRFDQMLSESVTSIQGGCVGKDSYDEIVVSTYSGWVTGLTTEPIHKESGPGEELKINQEMQNKISSLRNELEHLQYKVLQERENYQQSSQSSKAKSAVPSFGINDKFTLNKDDASYSLILEVQTAIDNVLIQSDVPIDLLDVDKNSAVVSFSSCDSESNDNFLLATYRCQADTTRLELKIRSIEGQYGTLQAYVTPRIQPKTCQVRQYHIKPLSLHQRTHFIDHDRPMNTLTLTGQFSFAEVHSWVVFCLPEVPEKPPAGECVTFYFQNTFLDTQLESTYRKGEGVFKSDNISTISILKDVLSKEATKRKINLNISYEINEVSVKHTLKLIHPKLEYQLLLAKKVQLIDALKELQIHEGNTNFLIPEYHCILEEADHLQEEYKKQPAHLERLYG
# partner: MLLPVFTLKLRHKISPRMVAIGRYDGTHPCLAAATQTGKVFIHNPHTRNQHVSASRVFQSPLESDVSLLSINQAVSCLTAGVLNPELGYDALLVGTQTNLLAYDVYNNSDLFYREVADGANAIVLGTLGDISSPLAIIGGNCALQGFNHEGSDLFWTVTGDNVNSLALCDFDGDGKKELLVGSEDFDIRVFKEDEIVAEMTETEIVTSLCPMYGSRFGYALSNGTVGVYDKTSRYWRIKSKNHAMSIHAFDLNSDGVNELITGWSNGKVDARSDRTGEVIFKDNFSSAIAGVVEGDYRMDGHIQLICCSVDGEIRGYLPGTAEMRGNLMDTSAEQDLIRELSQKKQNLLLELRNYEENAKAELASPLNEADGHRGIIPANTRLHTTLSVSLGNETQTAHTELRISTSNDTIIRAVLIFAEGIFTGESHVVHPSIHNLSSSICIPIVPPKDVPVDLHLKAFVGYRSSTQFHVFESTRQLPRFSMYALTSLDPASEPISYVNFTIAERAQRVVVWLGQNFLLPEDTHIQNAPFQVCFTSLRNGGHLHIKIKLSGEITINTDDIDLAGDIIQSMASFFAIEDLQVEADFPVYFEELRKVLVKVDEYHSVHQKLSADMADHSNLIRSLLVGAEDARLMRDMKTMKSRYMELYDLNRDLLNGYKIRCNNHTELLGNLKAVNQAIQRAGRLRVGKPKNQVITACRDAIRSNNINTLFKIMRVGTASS
# Variants of: B1
# Settings: with bbs2_human BBS2, Q9BXC9
row,Variant,effect of a mutation on the interaction
1,P328K,with no effect
2,G329A,with no effect
3,G329K,with no effect
4,E330A,with no effect
5,E330K,with no effect
6,E331A,with no effect
7,E331K,with no effect
8,L332A,with no effect
9,L332E,with no effect
10,L332K,with no effect
11,K333A,with no effect
12,K333E,with no effect
13,I334A,with no effect
14,I334E,with no effect
15,I334K,with no effect
16,N335E,with no effect
17,N335K,with no effect
18,Q336K,with no effect
19,E337A,with no effect
20,M338A,with no effect

row,Variant,effect of a mutation on the interaction
1,M338E,with no effect
2,M338K,with no effect
3,Q339A,with no effect
4,Q339E,with no effect
5,Q339K,with no effect
6,N340A,with no effect
7,N340K,with no effect
8,K341A,with no effect
9,K341E,with no effect
10,I342A,with no effect
11,I342E,with no effect
12,S344E,with no effect
13,L345E,with no effect
14,R346E,with no effect
15,E348A,with no effect
16,L349A,with no effect
17,L349E,with no effect
18,E350K,with no effect
19,H351E,with no effect
20,H351K,with no effect

row,Variant,effect of a mutation on the interaction
1,L352A,with no effect
2,L352E,with no effect
3,Q353E,with no effect
4,Q353K,with no effect
5,Y354A,with no effect
6,Y354E,with no effect
7,K355A,with no effect
8,K355E,with no effect
9,V356A,disrupting interaction strength
10,V356E,with no effect
11,L357A,with no effect
12,L357E,with no effect
13,Q358A,with no effect
14,Q358K,with no effect
15,E359A,with no effect
16,E359K,with no effect
17,R360E,with no effect
18,R360K,with no effect
19,E361K,with no effect

# More lines, now with the values ahead:
row,effect of a mutation on the interaction,Variant
1,with no effect,P328E
2,with no effect,G329E
3,with no effect,N335A
4,with no effect,Q336A
5,with no effect,Q336E
6,with no effect,E337K
7,with no effect,N340E
8,with no effect,I342K
9,with no effect,S343A
10,with no effect,S343E
11,with no effect,S343K
12,with no effect,S344A
13,with no effect,S344K
14,with no effect,L345A
15,with no effect,L345K
16,with no effect,R346A
17,with no effect,R346K

row,effect of a mutation on the interaction,Variant
1,with no effect,N347A
2,with no effect,N347E
3,with no effect,N347K
4,with no effect,E348K
5,with no effect,L349K
6,with no effect,E350A
7,with no effect,H351A
8,with no effect,L352K
9,with no effect,Q353A
10,with no effect,Y354K
11,with no effect,V356K
12,with no effect,L357K
13,with no effect,Q358E
14,with no effect,R360A
15,with no effect,E361A
16,with no effect,N362A
17,with no effect,N362E
